From PMC13317680, “Molecular architecture of the human citrate synthase–malate dehydrogenase 2 metabolon” (Acta Crystallographica Section D: Structural Biology, 2026)
Blank lines part the entries; values can stand above or below the molecule they belong to.

Assays:
[1] = molecular target: Human citrate synthase (human) (UniProt O75390); assay: SEC-SAXS; glutaraldehyde cross-linked hMDH2-hCS; Shodex KW-803, 50 mM sodium phosphate pH 7, 100 mM NaCl, 2 mM DTT, 2% glycerol, 10°C; LightDock models fitted with FoXS
[2] = molecular target: Human citrate synthase (human) (UniProt O75390)
[3] = molecular target: the molecule itself; assay: SAXS (SEC-SAXS and HT-SAXS); hCS alone, 0.07-2.0 mg/ml in 50 mM Tris-HCl, 100 mM NaCl, 0.1 mM EDTA pH 7.5, 10°C; data compared with crystal structures and a normal-mode model (FoXS)

- stoichiometry N (hMDH2 (dimer) per hCS (dimer)) [1]: 2
- NADH production (A340), hMDH2 titrated into 2.5 µM hCS at hMDH2:hCS molar ratios 0:1 to 3:1; no saturation (hMDH2 dimer per hCS dimer) [2]: > 1
Molecule: Human mitochondrial malate dehydrogenase 2 (from UniProt P40926-1 25-338) (enzyme)

B1: Human citrate synthase (enzyme, UniProt O75390 28-466, looked up)
chain: ASSTNLKDILADLIPKEQARIKTFRQQHGKTVVGQITVDMMYGGMRGMKGLVYETSVLDPDEGIRFRGFSIPECQKLLPKAKGGEEPLPEGLFWLLVTGHIPTEEQVSWLSKEWAKRAALPSHVVTMLDNFPTNLHPMSQLSAAVTALNSESNFARAYAQGISRTKYWELIYEDSMDLIAKLPCVAAKIYRNLYREGSGIGAIDSNLDWSHNFTNMLGYTDHQFTELTRLYLTIHSDHEGGNVSAHTSHLVGSALSDPYLSFAAAMNGLAGPLHGLANQEVLVWLTQLQKEVGKDVSDEKLRDYIWNTLNSGRVVPGYGHAVLRKTDPRYTCQREFALKHLPNDPMFKLVAQLYKIVPNVLLEQGKAKNPWPNVDAHSGVLLQYYGMTEMNYYTVLFGVSRALGVLAQLIWSRALGFPLERPKSMSTEGLMKFVDSKSG
notes: Human citrate synthase, mitochondrial, UniProt O75390, amino acids 28-466; Dimer in solution by SAXS; PDB 5uzr was the starting model for the SAXS fit; also called hCS; CS; source: E. coli, purified (HisTrap nickel column, Sephacryl S200 SEC)
- stoichiometry N [3]: 2
